Source: patent US20140193417A1 (LUDWIG INSTITUTE FOR CANCER RESEARCH, published 2014)

Target: T1, sodium-dependent phosphate transport protein 2b (NaPi2b, SLC34A2), human, endogenous (human, UniProt O95436 1-690)
T1 construct: whole, on cells; Naturally expressed, N-glycosylated membrane protein of human cancer cell lines (OVCAR-3, SK-RC-18 and others) and tissues; used on intact cells (MHA, flow cytometry), in cell or tissue lysates (Western blot, immunoprecipitation) and in tissue sections; also called MX35 antigen; NaPi2b/MX35
T1 sequence (looked up): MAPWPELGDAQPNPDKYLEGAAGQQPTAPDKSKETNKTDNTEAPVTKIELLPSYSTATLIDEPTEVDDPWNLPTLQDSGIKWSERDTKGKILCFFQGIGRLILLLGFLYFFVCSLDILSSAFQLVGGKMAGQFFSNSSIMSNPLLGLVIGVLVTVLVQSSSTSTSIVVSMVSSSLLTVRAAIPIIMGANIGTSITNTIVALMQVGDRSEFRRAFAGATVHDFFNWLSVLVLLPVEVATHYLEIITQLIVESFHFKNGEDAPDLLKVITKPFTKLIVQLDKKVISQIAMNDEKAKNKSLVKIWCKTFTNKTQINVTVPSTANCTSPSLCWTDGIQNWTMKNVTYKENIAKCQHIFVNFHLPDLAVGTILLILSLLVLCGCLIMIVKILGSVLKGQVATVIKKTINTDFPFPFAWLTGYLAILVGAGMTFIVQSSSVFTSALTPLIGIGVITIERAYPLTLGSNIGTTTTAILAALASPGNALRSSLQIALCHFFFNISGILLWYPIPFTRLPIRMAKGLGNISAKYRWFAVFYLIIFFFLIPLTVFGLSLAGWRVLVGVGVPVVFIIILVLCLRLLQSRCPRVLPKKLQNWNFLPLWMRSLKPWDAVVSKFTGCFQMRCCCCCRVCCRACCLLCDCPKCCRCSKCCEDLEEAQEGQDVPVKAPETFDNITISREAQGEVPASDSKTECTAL
Test: flow cytometry on SK-RC-18 cells, 20 ug/ml antibody
Protocol: The binding efficacy of humanized MX35 antibody, synthesized and purified as described above, was compared with the murine version of the MX35 antibody, using fluorescein isothiocyanate—FITC—marker to assess the specific binding to different cells lines in flow cytometry. The cell lines listed in TABLE 4 were trypsinized, adjusted to a concentration of 2.5×10⁵ cells and distributed in 1.5 mL test tubes. After centrifugation the pellet was resuspended in 100 uL of primary antibody (either murine MX35, humanized MX35, hu3S193 or Zenapax®) diluted in the same culture medium used to cultivate the cells in the concentration of 20 μg/ml. In the case of controls “cells only” and FITC-conjugates, the cells were resuspended in 100 μL of medium culture. The mixtures were incubated for 1 h at 4° C. and then washed twice with 200 μL of phosphate buffered saline. The cells were resuspended in 100 μL of secondary antibody-FITC conjugated, either murine or human depending on the MX35 antibody version used. The control “cells only” tube received medium culture only. […] Staining of the cells with the fluorescent probes was measured in a fluid stream in the flow cytometry Guava® ExpressPro (Guava EasyCyte Mini System). For each individual experiment 10,000 events were acquired and counted.

- binding result: binds
B1: humanized MX35 (huMX35) monoclonal antibody (antibody, V domains shown)
VH: QVQLVQSGAEVVKPGASVKMSCKASGYTFTGYNIHWVKQAPGQGLEWIGAIYPGNGDTSYKQKFRGRATLTADTSTSTVYMELSSLRSEDSAVYYCARGETARATFAYWGQGTLVTVSS
VL: DIQMTQSPSSLSASVGDRVTITCSASQDIGNFLNWYQQKPGKTVKVLIYYTSSLYSGVPSRFSGSGSGTDYTLTISSLQPEDFATYYCQQYSKLPLTFGQGTKLELKR
notes: Produced in Per.C6 cells, protein A purified; also called Human MX35; humanized MX35 antibody
